The text below walks through data of the supplement of paper PMC7877785.

± gives the uncertainty stated by the source.

A short description of the data set: self-splicing fitness, log relative to wild type (ln ratio); higher = more splicing; Tetrahymena group I intron in knt gene, E. coli kanamycin selection, DiMSum; sequences stand for … in CUCUCU…GGAGGGAAAAGUUAUCAGGCAUGCACCUGGUAGCUAGUCUUUAAACCAAUAGAUUGCAUCGGUUUAAAAGGCAAGACCGUCAAAUUGCGGGAAAGGGGUCAACAGCCGUUCAGUACCAAGUCUCAGGGGAAACUUUGAGAUGGCCUUGCAAAGGGUAUGGUAAUAAGCUGACGGACAUGGUCCUAACCACGCAGCCAAGUCCUAAGUCAACAGAUCUUCUGUUGAUAUGGAUGCAGUUCACAGACUAAAUGUCGGUCGGGGAAGAUGUAUUCUUCUCAUAAGAUAUAGUCGGACCUCUCCUUAAUGGGAGCUAGCGGAUGAAGUGAUGCAACACUGGAGCCGCUGGGAACUAAUUUGUAUGCGAAAGUAUAUUGAUUAGUUUUGGAGUACUCGUGGUCG
The gist of the method:
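Library with all eight P1ex-region intron nucleotides randomised, intron inside the knt kanamycin-resistance gene on pET-22b(+), in E. coli BL21(DE3). Cells grew overnight at 37°C or 30°C on LB agar with or without 25 μg/mL kanamycin (plus 100 μg/mL carbenicillin, 50 μM IPTG, 0.2% rhamnose), in six replicate transformations. Pooled colonies were amplicon-sequenced on Illumina HiSeq 2500. DiMSum fitness is the error-weighted combination of wild-type-normalised replicate fold changes, kanamycin versus none.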

In the case of UCACAGCAAUAUUACGACGC, the “self-splicing fitness (ln)” value is, setting by setting: (30 °C) -2.07 ± 0.15; (37 °C) -1.03 ± 0.2.
Taken in the same sequence, the figures for CGUUAGCAAUAUUACGGAAG were -1.02 ± 0.12 and -0.829 ± 0.12.
In the same order, the values of GUAGAGCAAUAUUACGUUUU are -2.47 ± 0.16 and -1.36 ± 0.18.
Taken in the same sequence, the figures for AUGCAGCAAUAUUACGUUGG were -2.96 ± 0.098 and -2.33 ± 0.17.
Regarding GGACAGCAAUAUUACGGGAG, the “self-splicing fitness (ln)” value (30 °C) is -2.73 ± 0.13 and the “self-splicing fitness (ln)” value (37 °C) was -1.28 ± 0.15.
In the same order, the values of CAGCAGCAAUAUUACGUCGA are -1.73 ± 0.12 and -1.25 ± 0.11.
In the same order, the values of UACCAGCAAUAUUACGCGGG are -3.61 ± 0.21 and -1.31 ± 0.17.
Take CGCGAGCAAUAUUACGUGAC: the “self-splicing fitness (ln)” value (37 °C) is -2.54 ± 0.3.
As to ACAAAGCAAUAUUACGGGAC, the “self-splicing fitness (ln)” value was -3.25 ± 0.17 (30 °C) and -1.96 ± 0.14 (37 °C).
In the same order, the values of AGGUAGCAAUAUUACGUUUC are -3.528 ± 0.026 and -2.18 ± 0.039.
In the same order, the values of AUAGAGCAAUAUUACGUUCU are -1.35 ± 0.15 and 0.267 ± 0.17.
Taken in the same sequence, the figures for ACUCAGCAAUAUUACGAAAC were -2.62 ± 0.092 and -1.43 ± 0.11.
Turning to CCCGAGCAAUAUUACGGGGU, the “self-splicing fitness (ln)” value reads like this: (30 °C) -2.92 ± 0.16; (37 °C) -2.93 ± 0.17.
On to UAAUAGCAAUAUUACGAUGC, for which the “self-splicing fitness (ln)” value (30 °C) is -3.45 ± 0.3.
Consider UCAUAGCAAUAUUACGUACA, for which the “self-splicing fitness (ln)” value is -2.15 ± 0.14 (30 °C) and -1.46 ± 0.12 (37 °C).
With UUGCAGCAAUAUUACGUAAA, the “self-splicing fitness (ln)” value was -1.25 ± 0.095 (30 °C) and -0.427 ± 0.12 (37 °C).
In the same order, the values of UCCAAGCAAUAUUACGAUUC are -2.6 ± 0.37 and -2.18 ± 0.34.
For the sequence AGGUAGCAAUAUUACGAGGG, the “self-splicing fitness (ln)” value by setting is: (30 °C) -3.972 ± 0.031; (37 °C) -3.2 ± 0.042.
Taken in the same sequence, the figures for CUAGAGCAAUAUUACGAUUU were -3.17 ± 0.2 and -1.48 ± 0.25.
Take CACCAGCAAUAUUACGUUCA: the “self-splicing fitness (ln)” value is -3.07 ± 0.16 (30 °C) and -2.15 ± 0.16 (37 °C).
In the same order, the values of UUAAAGCAAUAUUACGAAGU are -3.67 ± 0.44 and -2.47 ± 0.39.
Taken in the same sequence, the figures for GUUGAGCAAUAUUACGAGCA were -2.68 ± 0.28 and -1.71 ± 0.32.
As for CGAGAGCAAUAUUACGGCUU, the “self-splicing fitness (ln)” value (37 °C) is -3.05 ± 0.4.
Consider UACAAGCAAUAUUACGUUCC, for which the “self-splicing fitness (ln)” value runs as follows: (30 °C) -3.65 ± 0.28; (37 °C) -2.58 ± 0.25.
Taken in the same sequence, the figures for CAGUAGCAAUAUUACGGGAC were -4.57 ± 0.28 and -3.56 ± 0.2.
Taken in the same sequence, the figures for AUGAAGCAAUAUUACGAGGC were -4.11 ± 0.27 and -2.77 ± 0.23.
For the sequence UCGUAGCAAUAUUACGACUA, the “self-splicing fitness (ln)” value (30 °C) is -1.41 ± 0.19 and the “self-splicing fitness (ln)” value (37 °C) was -0.0995 ± 0.15.
In the same order, the values of ACUUAGCAAUAUUACGUAAC are -2.9 ± 0.12 and -2.43 ± 0.2.
Taken in the same sequence, the figures for CACUAGCAAUAUUACGCCAG were -1.1 ± 0.08 and -0.0668 ± 0.11.
As for CGUAAGCAAUAUUACGUGGU, the “self-splicing fitness (ln)” value was -3.19 ± 0.13 (30 °C) and -2.72 ± 0.16 (37 °C).
Taken in the same sequence, the figures for GGAUAGCAAUAUUACGGCUC were -0.0157 ± 0.31 and -1.59 ± 0.35.
In the same order, the values of ACCUAGCAAUAUUACGGGCU are -1.51 ± 0.076 and -1.35 ± 0.094.
CACUAGCAAUAUUACGAUCG: the “self-splicing fitness (ln)” value amounted to 0.531 ± 0.067 (30 °C) and 0.717 ± 0.071 (37 °C).
In the same order, the values of UUCAAGCAAUAUUACGCACA are -0.531 ± 0.089 and 0.153 ± 0.13.
In the same order, the values of UUACAGCAAUAUUACGAAUA are -2.6 ± 0.3 and -1.03 ± 0.2.
With UAUUAGCAAUAUUACGGGCU, the “self-splicing fitness (ln)” value is -3.47 ± 0.27 (30 °C) and -2.3 ± 0.23 (37 °C).
Consider AGCAAGCAAUAUUACGAGAA, for which, for the setting “37 °C”, the “self-splicing fitness (ln)” value was -2.27 ± 0.4.
For the sequence GCAAAGCAAUAUUACGUUAC, the “self-splicing fitness (ln)” value (30 °C) is -2.75 ± 0.19 and the “self-splicing fitness (ln)” value (37 °C) was -1.3 ± 0.15.
In the same order, the values of GUGAAGCAAUAUUACGCACA are 0.0998 ± 0.15 and 0.512 ± 0.18.
On to UAUCAGCAAUAUUACGUAAA, for which the “self-splicing fitness (ln)” value is -0.89 ± 0.068 (30 °C) and 0.233 ± 0.1 (37 °C).
Take CACAAGCAAUAUUACGACUG: the “self-splicing fitness (ln)” value (30 °C) was -0.95 ± 0.046 and the “self-splicing fitness (ln)” value (37 °C) was found to be 0.337 ± 0.064.
For the sequence GGUGAGCAAUAUUACGUACG, the “self-splicing fitness (ln)” value reads like this: (30 °C) -0.28 ± 0.23; (37 °C) -0.434 ± 0.25.
In the same order, the values of UAUAAGCAAUAUUACGUAUU are -4.41 ± 0.37 and -1.61 ± 0.18.
Regarding ACUGAGCAAUAUUACGUAGG, the “self-splicing fitness (ln)” value runs as follows: (30 °C) -2.14 ± 0.14; (37 °C) -1.27 ± 0.18.
As for CUACAGCAAUAUUACGCCAU, the “self-splicing fitness (ln)” value by setting is: (30 °C) -3.16 ± 0.12; (37 °C) -2.45 ± 0.14.
For CACGAGCAAUAUUACGUAAA, the “self-splicing fitness (ln)” value (37 °C) is -1.83 ± 0.21.
As for UCGUAGCAAUAUUACGCACG, the “self-splicing fitness (ln)” value reads like this: (30 °C) -1.8 ± 0.23; (37 °C) -0.584 ± 0.2.
Taken in the same sequence, the figures for UGCAAGCAAUAUUACGUUUA were -1.49 ± 0.076 and -0.234 ± 0.072.
Taken in the same sequence, the figures for AACGAGCAAUAUUACGUGUA were -2.55 ± 0.11 and -3.2 ± 0.14.
As for GGCAAGCAAUAUUACGAGAC, the “self-splicing fitness (ln)” value is -0.681 ± 0.14 (30 °C) and -1.2 ± 0.23 (37 °C).
In the same order, the values of GUACAGCAAUAUUACGUAUG are -2.52 ± 0.086 and -1.45 ± 0.091.
Taken in the same sequence, the figures for GAUAAGCAAUAUUACGCUUA were -3.59 ± 0.31 and -2.91 ± 0.23.
In the same order, the values of AAUAAGCAAUAUUACGGGGU are -3.91 ± 0.31 and -3.11 ± 0.23.
Consider CUCUAGCAAUAUUACGGCUC, for which the “self-splicing fitness (ln)” value (30 °C) is -3.83 ± 0.22 and the “self-splicing fitness (ln)” value (37 °C) is -2.09 ± 0.21.
In the same order, the values of CCCUAGCAAUAUUACGAGUA are -3.32 ± 0.29 and -2.72 ± 0.33.
With UGUAAGCAAUAUUACGAGGC, the “self-splicing fitness (ln)” value is -1.16 ± 0.26 (30 °C) and -1.17 ± 0.41 (37 °C).
In the same order, the values of GACUAGCAAUAUUACGCAAG are -4.58 ± 0.36 and -1.6 ± 0.15.
In the case of CGUCAGCAAUAUUACGGCUG, the “self-splicing fitness (ln)” value (30 °C) was -1.51 ± 0.12 and the “self-splicing fitness (ln)” value (37 °C) is -1.24 ± 0.23.
In the same order, the values of UUCGAGCAAUAUUACGGUCU are -5 ± 0.38 and -5.45 ± 0.36.
In the same order, the values of GGGGAGCAAUAUUACGGACU are 0.0915 ± 0.28 and -0.621 ± 0.22.
In the same order, the values of ACCGAGCAAUAUUACGUUCG are -3.19 ± 0.48 and -1.76 ± 0.23.
Turning to CGUAAGCAAUAUUACGGUCG, the “self-splicing fitness (ln)” value is -0.611 ± 0.12 (30 °C) and 0.212 ± 0.14 (37 °C).
In the same order, the values of AAGUAGCAAUAUUACGAUCA are -0.93 ± 0.11 and -0.174 ± 0.11.
In the same order, the values of ACUAAGCAAUAUUACGUCCG are -1.69 ± 0.12 and -0.322 ± 0.17.
Taken in the same sequence, the figures for AGAAAGCAAUAUUACGUCCC were -0.156 ± 0.18 and 0.119 ± 0.25.
As to UUAGAGCAAUAUUACGACGA, the “self-splicing fitness (ln)” value is, setting by setting: (30 °C) 0.428 ± 0.12; (37 °C) 0.651 ± 0.15.
In the same order, the values of AAUCAGCAAUAUUACGGAGA are -0.814 ± 0.085 and -1.04 ± 0.1.
Taken in the same sequence, the figures for UCACAGCAAUAUUACGCGUG were -2.87 ± 0.14 and -2.13 ± 0.14.
For ACGCAGCAAUAUUACGUAUU, the “self-splicing fitness (ln)” value is, setting by setting: (30 °C) -3.49 ± 0.32; (37 °C) -2 ± 0.16.
Regarding UCUGAGCAAUAUUACGCUAA, the “self-splicing fitness (ln)” value (30 °C) was -3.49 ± 0.34.
For the sequence UGGUAGCAAUAUUACGUUCG, the “self-splicing fitness (ln)” value (30 °C) was -0.221 ± 0.12 and the “self-splicing fitness (ln)” value (37 °C) is -0.719 ± 0.14.
Taken in the same sequence, the figures for UUUCAGCAAUAUUACGAUCU were -2.25 ± 0.19 and -0.561 ± 0.17.
Taken in the same sequence, the figures for UCCCAGCAAUAUUACGCUUA were -2.26 ± 0.14 and -0.458 ± 0.11.
Taken in the same sequence, the figures for UGGCAGCAAUAUUACGGAUA were -0.806 ± 0.098 and -0.358 ± 0.11.
As to CGCCAGCAAUAUUACGCAGC, the “self-splicing fitness (ln)” value (30 °C) is -2.96 ± 0.34 and the “self-splicing fitness (ln)” value (37 °C) is -2.4 ± 0.38.
As to AGCAAGCAAUAUUACGAGGU, the “self-splicing fitness (ln)” value by setting is: (30 °C) -3.87 ± 0.42; (37 °C) -1.96 ± 0.2.
Taken in the same sequence, the figures for GGGGAGCAAUAUUACGUGCA were -3.32 ± 0.25 and -1.08 ± 0.17.
